Reference: the supplement of paper PMC9170038

Test system: MS2 coat protein
Test: apparent KD of MS2 coat protein; higher = weaker reporter binding
Settings: Eterna round: R107
Outline: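 Designed RNA switches were transcribed on-chip from Illumina sequencing clusters and titrated with SNAP-549-labelled MS2 coat protein in twofold steps from 0.7 or 1.5 nM up to 3 µM. Each step lasted 0.8–1.5 h at first and 10–20 min by the end, in 100 mM Tris-HCl pH 7.5, 80 mM KCl and 4 mM MgCl2, without or with constant ligand. Apparent KD is the median, for each design, of fits to normalised cluster binding curves.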

[1] = input ligand: theophylline 20 uM
[2] = input ligand: theophylline 2 mM
[3] = input ligand: tryptophan 2.4 mM

Row | Sequence | apparent KD of MS2 coat protein (input ligand: arginine 13.2 mM) [nM] | apparent KD of MS2 coat protein [1] [nM] | apparent KD of MS2 coat protein [2] [nM] | apparent KD of MS2 coat protein (input ligand: none) [nM] | apparent KD of MS2 coat protein [3] [nM]
1 | GCUAGGUCUACGGCCGCCACUAGACGUGGGUAAGACAUGAGGAUCACCCAUGUACUACAGGCGGAUAGGACCGGGUAGACCUAGC [SSTB NP+V+V2 #13 +-Same Structure] | 69.3 | 159 | 101 |  | 
2 | GCUGCUUUGGGAAGGAGCGCUGCGUUAUCAUGUUGGACAUGAGGAUCACCCAUGUAAAUGUAGCAGGUAGGUCGCUUAGGGCAGC [EAP NP+V+V2 #15] | 40.8 | 46 | 29.7 | 31.8 | 37.1
3 | GCUGGGUGCGCAAGGACCUGGCGUUGCGAUACCAGCACGGUAACGUGCCCUUGGCAGCGCACAUGAGGAUCACCCAUGUGGUGCG [#1 Exclusion - Theophylline A Attempt #21 (HarryS)] | 18.7 | 45.8 |  |  | 22.5
4 | GCUGUAAGUGCAGAUACCAGCGUGUUAUAUUUCUAAUGACAUGAGGAUCACCCAUGUAAAUGCCCUUGGCAGCUGCACUUACAGC [SSTHB #7] | 13.2 | 16.7 |  |  | 16.2
5 | GCUUGGGUCGCACGGCCCUGGCGGUGCGAUACCAGCACGGUAACGUGCCCUUGGCAGCGCACAUGAGGAUCACCCAUGUGGUGCG [#1 Exclusion - Theophylline A Attempt #23 (HarryS)] | 9.42 | 25.6 | 264 | 12.6 | 12.4
6 | GGAACGAUCACUUCUUUAUCUAAGGCGGAUACCAGUCCUCGGUUUGACCCUUGGCAGCCGACAACAUGAGGAUCACCCAUGUUCU [theeternabot_exclusion_MS2_Theo_A_25] | 12.5 | 18.9 |  |  | 15.6
7 | GGAAUUAAGACUGAUACCAGUCAAGAUAAUCAUAAGAAUAAACAUGAGGAUCACCCAUGUGACCCUUGGCAGCAGACUAAUACCG [Same State Theophylline B GF 26] | 38.5 | 51.1 |  |  | 39.2
8 | GGACUAACCAGAAGGAGCGACGCAAGCAGAAACUGCAAUCCUCCGCACGAGGAUCACCCGUGUCAGGUAGGUCGCUGGUUAGUCG [ArgBX 28] | 21.6 | 38.4 | 30.1 | 28.2 | 29.2
9 | GGACUAACCUGAAGGAGCGACACGCACAAAGUGCAAAUUCCUCCACACGAGGAUCACCCGUGUCAGGUAGGUCGCAGGUUAGUCG [ArgBX 28] | 24.3 | 30.8 | 23.7 | 23 | 29.1
10 | GGAGCUACGUCGGCCGCCACUAGCGGUAAUUACGUGUACAUGAGGAUCACCCAUGUAAUAUGGACUAGGACCGGGACGUAGCUCC [Salmon] | 10.6 | 21.8 | 13.7 | 13.3 | 12.2
11 | GGAGUCGGCACGGCCGCCACUGCGGUGGUGUGACAUGAGGAUCACCCAUGUUGUCAUGCGGCCCUUAGGACCGGGUGGCGGUUCC [#1 Exclusion - Tryptophan B Attempt #22 (HarryS)] | 28.4 | 76.1 | 82.6 | 58.7 | 
12 | GGAUAGGACACGGCCGCCACUACCUAGGAUACUAGCAACAUUUGGGUACAUGAGGAUCACCCAUGUAGGACCGGGUGUCCUAUCG | 31.9 | 34.2 | 28.4 | 25.3 | 124
13 | GGAUAGGACAGAAGGAGCGACAUGGCGACGAAAGUCGAAACUUCACAUGAGGAUCACCCAUGUCAGGUAGGUCGCUGUCCUAUCG [ArgXB 7 #MS2Gate #StaticStem] | 48.8 | 63.8 | 55.7 | 48.9 | 47.1
14 | GGCAAGCGAGACAUGAGGAUCACCCAUGUUCGAGGACCGGUACGGCCGCCACUCGGUGGACUCAUGGUAAAGCCGGUGAGCCAAA [AK 1 SS Trypt (A)] | 27.4 | 44.8 | 38 |  | 
15 | GGCACAUGUGGAAGGAGCGUCGUACGAGCUACAUGAGGAUCACCCAUGUCGGUUAGUGUCCGACAGGUAGGUCGCCACAUUUAAC [Isiser] | 114 | 235 | 551 | 374 | 195
16 | GGCACCAGGAGAAGGAGCGUGAAGACAUGAGGAUCACCCAUGUAGAGGCCCGGACCGGGUUCGCAGGUAGGUCGCUCCUGGUGCC [#1 Same State - Arginine B Attempt #15 (HarryS)] | 10 | 17.9 | 23 | 15.6 | 16.9
17 | GGCCUAUGGCGCGAUACCAGCUUGAGUGUACUGGCCAGGUACAUGAGGAUCACCCAUGUAAGCCCUUGGCAGCGCGUCAUAGGCC [#1 Exclusion - Theophylline B Attempt #23 (HarryS)] | 8.91 | 17.9 | 32.2 | 9.95 | 9.74
18 | GGCUACAUGAGGAUCACCCAUGUUUCUCGUCGAGGACCGGUACGGCCGCCACUCGUUGUUGGGACUCAGUAUCAGUCGUUAGUUU [theeternabot_sameState_MS2_Trp_A_36] | 23.8 | 34.3 | 40.2 |  | 
